# Experimental data as given in paper PMC10397247.
# T1: P6-AA-12HAA-Y
# T1 chain: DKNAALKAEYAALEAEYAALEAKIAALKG
# T2: 4H1446-AA
# T2 chain: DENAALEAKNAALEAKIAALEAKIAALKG
# T3: 4H2898-AA
# T3 chain: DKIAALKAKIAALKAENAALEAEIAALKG
# T4: 4H1639-AA
# T4 chain: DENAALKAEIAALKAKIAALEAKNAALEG
# T5: 4H1738-AA
# T5 chain: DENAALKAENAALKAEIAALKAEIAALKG
# T6: 4H3940-AA
# T6 chain: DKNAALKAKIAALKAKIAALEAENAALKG
# T7: 4H327-AA
# T7 chain: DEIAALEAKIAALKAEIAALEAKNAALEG
# T8: 4H816-AA
# T8 chain: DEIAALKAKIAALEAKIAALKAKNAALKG
# T9: 4H2985-AA
# T9 chain: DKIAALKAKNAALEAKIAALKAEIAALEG
# T10: 4H2614-AA
# T10 chain: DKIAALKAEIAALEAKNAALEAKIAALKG
# T11: 4H4033-AA
# T11 chain: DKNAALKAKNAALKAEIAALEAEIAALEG
# T12: 4H2726-AA
# T12 chain: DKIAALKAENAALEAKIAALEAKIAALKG
# T13: 4H481-AA
# T13 chain: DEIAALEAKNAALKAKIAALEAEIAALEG
# T14: 4H2608-AA
# T14 chain: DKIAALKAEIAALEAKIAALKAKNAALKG
# T15: 4H1710-AA
# T15 chain: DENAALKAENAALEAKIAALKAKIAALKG
# T16: 4H3920-AA
# T16 chain: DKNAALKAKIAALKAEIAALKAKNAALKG
# T17: 4H3446-AA
# T17 chain: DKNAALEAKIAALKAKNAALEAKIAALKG
# T18: 4H146-AA
# T18 chain: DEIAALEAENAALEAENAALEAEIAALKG
# T19: 4H3066-AA
# T19 chain: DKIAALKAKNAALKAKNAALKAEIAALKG
# T20: 4H2991-AA
# T20 chain: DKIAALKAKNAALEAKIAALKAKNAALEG
# T21: 4H1109-AA
# T21 chain: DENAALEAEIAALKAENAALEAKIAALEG
# T22: 4H1391-AA
# T22 chain: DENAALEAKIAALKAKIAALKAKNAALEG
# T23: 4H189-AA
# T23 chain: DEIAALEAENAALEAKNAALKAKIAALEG
# T24: APC3645-AA
# T24 chain: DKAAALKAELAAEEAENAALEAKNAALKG
# T25: APC2237-AA
# T25 chain: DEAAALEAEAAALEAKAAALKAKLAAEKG
# T26: APC6108-AA
# T26 chain: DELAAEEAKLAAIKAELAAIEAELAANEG
# T27: APC4264-AA
# T27 chain: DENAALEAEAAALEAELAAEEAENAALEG
# T28: P6-AA-1HGe-S
# T28 chain: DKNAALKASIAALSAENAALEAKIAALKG
# T29: P6-AA-1HAA-T
# T29 chain: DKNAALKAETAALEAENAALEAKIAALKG
# T30: P6-AA-12HGe-H
# T30 chain: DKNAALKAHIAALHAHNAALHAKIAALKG
# T31: P6-AA-12HGe-K
# T31 chain: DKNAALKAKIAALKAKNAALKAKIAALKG
# T32: P6-AA-12HGe-S
# T32 chain: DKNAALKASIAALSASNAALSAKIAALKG
# T33: P6-AA-12HGe-Q
# T33 chain: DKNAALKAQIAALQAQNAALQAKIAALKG
# T34: P6-AA-12HGe-T
# T34 chain: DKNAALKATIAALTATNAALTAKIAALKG
# T35: Core_NIIN-es_KEKK
# T35 chain: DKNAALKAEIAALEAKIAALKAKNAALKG
# T36: 4H1324-AA
# T36 chain: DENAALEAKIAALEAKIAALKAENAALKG
# T37: Core_NNII-es_KKKK
# T37 chain: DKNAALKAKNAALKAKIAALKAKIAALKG
# T38: P5-AA-1HGe-R
# T38 chain: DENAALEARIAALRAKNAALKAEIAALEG
# T39: P5-AA-1HAA-K
# T39 chain: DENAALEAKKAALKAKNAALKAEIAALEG
# T40: P5-AA-1HAA-S
# T40 chain: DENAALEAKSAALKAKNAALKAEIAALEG
# T41: P5-AA-1HAA-H
# T41 chain: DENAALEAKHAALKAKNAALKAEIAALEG
# T42: P5-AA-12HGe-W
# T42 chain: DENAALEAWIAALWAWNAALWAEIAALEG
# B1: 4H1385-AA (peptide)
# chain: DENAALEAKIAALKAKIAALKAEIAALEG
# B2: 4H1257-AA (peptide)
# chain: DENAALEAENAALKAKIAALKAEIAALEG
# B3: 4H1626-AA (peptide)
# chain: DENAALKAEIAALKAENAALKAEIAALKG
# B4: 4H1350-AA (peptide)
# chain: DENAALEAKIAALKAEIAALEAKIAALKG
# B5: 4H1064-AA (peptide)
# chain: DENAALEAEIAALEAKIAALEAKNAALKG
# B6: 4H1845-AA (peptide)
# chain: DENAALKAKIAALEAKNAALEAKIAALEG
# B7: 4H1401-AA (peptide)
# chain: DENAALEAKIAALKAKNAALKAEIAALEG
# B8: 4H1153-AA (peptide)
# chain: DENAALEAENAALEAEIAALEAEIAALEG
# B9: 4H3606-AA (peptide)
# chain: DKNAALKAEIAALEAENAALEAKIAALKG
# Columns and labels:
# Assay in all cases: two-hybrid library CCmax;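 note: natural log of median RNA to DNA barcode read ratio; higher means stronger binding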
# [1] = biological target: T1, P6-AA-12HAA-Y; details: mean of both orientations
# [2] = biological target: T2, 4H1446-AA; details: mean of both orientations
# [3] = biological target: T3, 4H2898-AA; details: mean of both orientations
# [4] = biological target: T4, 4H1639-AA; details: mean of both orientations
# [5] = biological target: T5, 4H1738-AA; details: mean of both orientations
# [6] = biological target: T6, 4H3940-AA; details: mean of both orientations
# [7] = biological target: T7, 4H327-AA; details: mean of both orientations
# [8] = biological target: T8, 4H816-AA; details: mean of both orientations
# [9] = biological target: T9, 4H2985-AA; details: mean of both orientations
# [10] = biological target: T10, 4H2614-AA; details: mean of both orientations
# [11] = biological target: T11, 4H4033-AA; details: mean of both orientations
# [12] = biological target: T12, 4H2726-AA; details: mean of both orientations
# [13] = biological target: T13, 4H481-AA; details: mean of both orientations
# [14] = biological target: T14, 4H2608-AA; details: mean of both orientations
# [15] = biological target: T15, 4H1710-AA; details: mean of both orientations
# [16] = biological target: T16, 4H3920-AA; details: mean of both orientations
# [17] = biological target: T17, 4H3446-AA; details: mean of both orientations
# [18] = biological target: T18, 4H146-AA; details: mean of both orientations
# [19] = biological target: T19, 4H3066-AA; details: mean of both orientations
# [20] = biological target: T20, 4H2991-AA; details: mean of both orientations
# [21] = biological target: T21, 4H1109-AA; details: mean of both orientations
# [22] = biological target: T22, 4H1391-AA; details: mean of both orientations
# [23] = biological target: T23, 4H189-AA; details: mean of both orientations
# [24] = biological target: T24, APC3645-AA
# [25] = biological target: T25, APC2237-AA; details: mean of both orientations
# [26] = biological target: T26, APC6108-AA; details: mean of both orientations
# [27] = biological target: T27, APC4264-AA; details: mean of both orientations
# [28] = biological target: T28, P6-AA-1HGe-S; details: mean of both orientations
# [29] = biological target: T29, P6-AA-1HAA-T; details: mean of both orientations
# [30] = biological target: T30, P6-AA-12HGe-H; details: mean of both orientations
# [31] = biological target: T31, P6-AA-12HGe-K; details: mean of both orientations
# [32] = biological target: T32, P6-AA-12HGe-S; details: mean of both orientations
# [33] = biological target: T33, P6-AA-12HGe-Q; details: mean of both orientations
# [34] = biological target: T34, P6-AA-12HGe-T; details: mean of both orientations
# [35] = biological target: T35, Core_NIIN-es_KEKK
# [36] = biological target: T36, 4H1324-AA; details: mean of both orientations
# [37] = biological target: T37, Core_NNII-es_KKKK; details: mean of both orientations
# [38] = biological target: T38, P5-AA-1HGe-R; details: mean of both orientations
# [39] = biological target: T39, P5-AA-1HAA-K; details: mean of both orientations
# [40] = biological target: T40, P5-AA-1HAA-S; details: mean of both orientations
# [41] = biological target: T41, P5-AA-1HAA-H; details: mean of both orientations
# [42] = biological target: T42, P5-AA-12HGe-W; details: mean of both orientations
binder,measurement,setting,value
B1,interaction score,[1],2.29
B2,interaction score,[2],0.0702
same,interaction score,[3],-1.42
B3,interaction score,[4],-1.38
same,interaction score,[5],-0.841
B4,interaction score,[6],-0.283
same,interaction score,[7],2.32
same,interaction score,[8],1.16
same,interaction score,[9],0.636
same,interaction score,[10],-0.142
same,interaction score,[11],-0.0842
same,interaction score,[12],-0.0467
same,interaction score,[13],0.532
same,interaction score,[14],1.38
same,interaction score,[15],0.556
B5,interaction score,[16],1.13
same,interaction score,[17],-1.11
same,interaction score,[18],-1.5
same,interaction score,[19],-1.4
same,interaction score,[20],-0.846
same,interaction score,[21],-1.24
same,interaction score,[22],1.33
same,interaction score,[23],-1.4
B6,interaction score,[24],-1.23
same,interaction score,[25],-1.46
same,interaction score,[26],-2.14
same,interaction score,[27],-1.79
B7,interaction score,[28],2.27
same,interaction score,[29],1.96
same,interaction score,[30],-1.23
same,interaction score,[31],-0.592
same,interaction score,[32],-0.834
same,interaction score,[33],1.69
same,interaction score,[34],0.16
B8,interaction score,[35],1.86
same,interaction score,[36],-0.874
same,interaction score,[37],1.83
B9,interaction score,[38],2.23
same,interaction score,[39],2.15
same,interaction score,[40],1.63
same,interaction score,[41],2.02
same,interaction score,[42],1.04
